According to patent US20160031996A1 (CSL, published 2016):

How the values were obtained:
Test in all cases: Western blot, supernatants of 293FS cells
[1] = molecular target: T1, soluble human IL-3Rα 1-306-His I50A (human, UniProt P26951 19-307)
T1 construct: supernatant of 293FS cells; also called I50, soluble alanine
T1 sequence: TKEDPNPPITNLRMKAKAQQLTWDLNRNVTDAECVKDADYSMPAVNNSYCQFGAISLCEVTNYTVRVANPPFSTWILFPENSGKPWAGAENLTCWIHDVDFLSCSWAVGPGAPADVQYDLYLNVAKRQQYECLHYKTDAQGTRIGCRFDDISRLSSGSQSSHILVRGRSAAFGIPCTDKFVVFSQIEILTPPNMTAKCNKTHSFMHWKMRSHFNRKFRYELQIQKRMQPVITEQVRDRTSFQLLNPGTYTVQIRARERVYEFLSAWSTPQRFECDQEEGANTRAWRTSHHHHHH

[2] = molecular target: T2, soluble human IL-3Rα 1-306-His E51A (human, UniProt P26951 19-307)
T2 construct: supernatant of 293FS cells; also called E51, soluble alanine
T2 sequence: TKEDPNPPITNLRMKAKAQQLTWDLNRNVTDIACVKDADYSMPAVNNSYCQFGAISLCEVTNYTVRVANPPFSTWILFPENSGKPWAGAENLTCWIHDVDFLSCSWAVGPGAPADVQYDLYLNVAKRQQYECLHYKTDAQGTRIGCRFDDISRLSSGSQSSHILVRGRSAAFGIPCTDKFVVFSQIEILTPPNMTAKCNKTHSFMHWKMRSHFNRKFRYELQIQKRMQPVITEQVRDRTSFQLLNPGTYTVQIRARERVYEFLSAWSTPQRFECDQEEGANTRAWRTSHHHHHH

[3] = molecular target: T3, soluble human IL-3Rα 1-306-His Y67A (human, UniProt P26951 19-307)
T3 construct: supernatant of 293FS cells; also called Y67, soluble alanine
T3 sequence: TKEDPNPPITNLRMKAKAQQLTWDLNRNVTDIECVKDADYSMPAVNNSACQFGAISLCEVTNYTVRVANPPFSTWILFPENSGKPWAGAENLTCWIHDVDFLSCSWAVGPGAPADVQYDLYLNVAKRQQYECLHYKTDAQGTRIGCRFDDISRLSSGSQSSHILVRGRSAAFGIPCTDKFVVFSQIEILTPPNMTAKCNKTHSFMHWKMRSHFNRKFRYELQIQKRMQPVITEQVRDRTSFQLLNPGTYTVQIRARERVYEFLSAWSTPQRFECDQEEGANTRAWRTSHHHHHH

[4] = molecular target: T4, soluble human IL-3Rα 1-306-His F70A (human, UniProt P26951 19-307)
T4 construct: supernatant of 293FS cells; also called F70, soluble alanine
T4 sequence: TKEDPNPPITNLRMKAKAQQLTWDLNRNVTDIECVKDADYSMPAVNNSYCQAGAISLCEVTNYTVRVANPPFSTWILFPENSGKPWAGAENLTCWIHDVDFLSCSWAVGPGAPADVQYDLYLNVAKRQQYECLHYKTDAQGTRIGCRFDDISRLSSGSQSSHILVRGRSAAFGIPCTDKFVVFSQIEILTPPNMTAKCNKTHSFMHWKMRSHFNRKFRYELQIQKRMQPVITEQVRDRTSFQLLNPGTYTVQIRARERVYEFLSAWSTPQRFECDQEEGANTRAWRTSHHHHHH

[5] = molecular target: T5, soluble human IL-3Rα 1-306-His R84A (human, UniProt P26951 19-307)
T5 construct: supernatant of 293FS cells; also called R84, soluble alanine
T5 sequence: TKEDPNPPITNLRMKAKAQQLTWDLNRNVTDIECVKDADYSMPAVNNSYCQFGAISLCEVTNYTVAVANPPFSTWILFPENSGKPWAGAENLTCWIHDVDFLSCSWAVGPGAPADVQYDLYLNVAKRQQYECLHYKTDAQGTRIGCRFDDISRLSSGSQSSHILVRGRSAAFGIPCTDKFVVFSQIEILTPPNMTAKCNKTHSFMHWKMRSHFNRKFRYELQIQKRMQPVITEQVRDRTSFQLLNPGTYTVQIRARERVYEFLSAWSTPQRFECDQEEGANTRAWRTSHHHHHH

[6] = molecular target: T6, soluble human IL-3Rα 1-306-His P88A (human, UniProt P26951 19-307)
T6 construct: supernatant of 293FS cells; also called P88, soluble alanine
T6 sequence: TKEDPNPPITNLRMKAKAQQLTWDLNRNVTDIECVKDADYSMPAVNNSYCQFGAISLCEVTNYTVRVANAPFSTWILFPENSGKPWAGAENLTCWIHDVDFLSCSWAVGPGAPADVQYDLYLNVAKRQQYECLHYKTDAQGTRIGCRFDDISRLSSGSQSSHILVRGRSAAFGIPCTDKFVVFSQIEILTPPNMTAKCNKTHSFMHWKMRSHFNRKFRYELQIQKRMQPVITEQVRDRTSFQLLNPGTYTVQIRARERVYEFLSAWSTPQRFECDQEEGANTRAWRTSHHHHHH

[7] = molecular target: T7, soluble human IL-3Rα 1-306-His W93A (human, UniProt P26951 19-307)
T7 construct: supernatant of 293FS cells; also called W93, soluble alanine
T7 sequence: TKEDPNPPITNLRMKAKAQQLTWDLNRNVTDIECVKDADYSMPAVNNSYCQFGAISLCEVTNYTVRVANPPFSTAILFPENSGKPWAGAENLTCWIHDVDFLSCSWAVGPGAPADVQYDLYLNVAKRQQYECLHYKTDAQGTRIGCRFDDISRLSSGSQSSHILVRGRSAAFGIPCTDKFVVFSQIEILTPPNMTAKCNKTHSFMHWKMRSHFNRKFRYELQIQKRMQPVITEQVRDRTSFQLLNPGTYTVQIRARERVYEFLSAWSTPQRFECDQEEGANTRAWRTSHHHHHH

Measured: binding result

B1: antibody CSL362 (antibody, V domains shown)
VH: EVQLVQSGAEVKKPGESLKISCKGSGYSFTDYYMKWARQMPGKGLEWMGDIIPSNGATFYNQKFKGQVTISADKSISTTYLQWSSLKASDTAMYYCARSHLLRASWFAYWGQGTMVTVSS
VL: DIVMTQSPDSLAVSLGERATINCESSQSLLNSGNQKNYLTWYQQKPGQPPKPLIYWASTRESGVPDRFSGSGSGTDFTLTISSLQAEDVAVYYCQNDYSYPYTFGQGTKLEIKR
no binding: all assays above
